The results in this text go back to PMC10670289, “Characterization and Molecular Dynamics Simulation of a Lipase Capable of Improving the Functional Characteristics of an Egg-Yolk-Contaminated Liquid Egg White” (Foods, 2023).

Experiment in all cases: purified protein
Type in all cases: biochemical, Bacillus subtilis
What all share (details): 30 °C, pH 9.0

Substrate in data set [1]: CCCCCCCC(=O)Oc1ccc([N+](=O)[O-])cc1
Substrate in data set [2]: CCCCCCCCCCCC(=O)Oc1ccc([N+](=O)[O-])cc1
Substrate in data set [3]: CCCCCCCCCCCCCCCCCC(=O)Oc1ccc([N+](=O)[O-])cc1
Substrate in data set [4]: CCCCCC(=O)Oc1ccc([N+](=O)[O-])cc1
Substrate in data set [5]: CCCCCCCCCCCCCC(=O)Oc1ccc([N+](=O)[O-])cc1
Substrate in data set [6]: CCCCCCCCCC(=O)Oc1ccc([N+](=O)[O-])cc1
Substrate in data set [7]: CCCCCCCCCCCCCCCC(=O)Oc1ccc([N+](=O)[O-])cc1

B1: Lip-IM (Bacillus subtilis subsp. subtilis str. 168) (protein)
chain: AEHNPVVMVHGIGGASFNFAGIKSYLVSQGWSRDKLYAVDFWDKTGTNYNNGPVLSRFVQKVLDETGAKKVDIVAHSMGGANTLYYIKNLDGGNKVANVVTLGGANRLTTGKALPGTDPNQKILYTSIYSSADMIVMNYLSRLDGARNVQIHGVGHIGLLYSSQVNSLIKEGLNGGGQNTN
notes: 22 kDa by SDS-PAGE
As to B1, the Km (commonly the substrate concentration at which the rate is half of its maximum) in data set [1] is recorded as 4.21 ± 0.09 mM; in data set [2], 5.96 ± 0.08 mM; in data set [3] it was 6.26 ± 0.07 mM; in data set [4], 3.92 ± 0.06 mM; in data set [5] it was 5.12 ± 0.09 mM; in data set [6], 5.23 ± 0.04 mM. In data set [7], the Km is recorded as 9.26 ± 0.09 mM. Also, the maximal velocity (Vmax) – broadly, the rate approached at saturating substrate – was 236 µM/min in data set [1]; 204 µM/min in data set [2]; 292 µM/min in data set [3]; 233 µM/min in data set [4]; 214 µM/min in data set [5]; 184 µM/min in data set [6]. The Vmax in data set [7] amounted to 150 µM/min.
